Data published in publication PMC4060006, “SM proteins Sly1 and Vps33 co-assemble with Sec17 and SNARE complexes to oppose SNARE disassembly by Sec18” (eLife, 2014).

B5: GST-Sed5 SNARE domain (aa170-319) (domain or fragment, S. cerevisiae, UniProt Q01590 170-319, looked up)
chain: ANKDRWQKLTTDTGHAPADDQTQSNHAADLTTYNNSNPFMTSLLDESSEKNNNSSNQGELSFPQNDSQLMLMEEGQLSNNVYLQERNRAVETIESTIQEVGNLFQQLASMVQEQGEVIQRIDANVDDIDLNISGAQRELLKYFDRIKSNR
notes: Sed5, Golgi Qa-SNARE, S. cerevisiae, aa170-319, lacks the N-peptide, the Habc domain and the transmembrane domain; also called Golgi Qa-SNARE lacking N-peptide and Habc domain; not shown: GST, N-terminal, kept
B6: Vam3-GST (cytoplasmic domain of Vam3, aa1-264) (domain or fragment, S. cerevisiae, UniProt Q12241 1-264, looked up)
chain: MSFFDIEAQSSKGNSQQEPQFSTNQKTKELSNLIETFAEQSRVLEKECTKIGSKRDSKELRYKIETELIPNCTSVRDKIESNILIHQNGKLSADFKNLKTKYQSLQQSYNQRKSLFPLKTPISPGTSKERKDIHPRTEAVRQDPESSYISIKVNEQSPLLHNEGQHQLQLQEEQEQQQQGLSQEELDFQTIIHQERSQQIGRIHTAVQEVNAIFHQLGSLVKEQGEQVTTIDENISHLHDNMQNANKQLTRADQHQRDRNKCGK
notes: Vam3, vacuole Qa-SNARE, S. cerevisiae, cytoplasmic domain aa1-264, no transmembrane domain; TEV site between SNARE and GST; also called Vam3 cytoplasmic domain; vacuole Qa-SNARE; not shown: GST, C-terminal, kept
B8: His6-Sec22 (soluble domain, aa1-188) (domain or fragment, S. cerevisiae, UniProt P22214 1-188, looked up)
chain: MIKSTLIYREDGLPLCTSVDNENDPSLFEQKQKVKIVVSRLTPQSATEATLESGSFEIHYLKKSMVYYFVICESGYPRNLAFSYLNDIAQEFEHSFANEYPKPTVRPYQFVNFDNFLQMTKKSYSDKKVQDNLDQLNQELVGVKQIMSKNIEDLLYRGDSLDKMSDMSSSLKETSKRYRKSAQKINFD
notes: Sec22, Golgi R-SNARE, S. cerevisiae, soluble domain aa1-188; also called Golgi R-SNARE; source: E. coli (pRIL plasmid), purified (Ni-NTA); not shown: His6, N-terminal, kept

Assays:
Conditions in all cases: both partners purified
[1] = molecular target: B6; assay: pull-down; SNARE complex assembly: 125 pmol GST-tagged Qa-SNARE on glutathione sepharose 4B; >=fivefold molar excess of Qb-, Qc- and R-SNAREs overnight at 4°C; SM Assay Buffer (20 mM HEPES, 150 mM NaCl, 2 mM 2-mercaptoethanol, 0.05% Anapoe-X-100, pH 7.4); washed
[2] = molecular target: B6; assay: pull-down; re-assembly with added SNAREs: as a9, but soluble Qb, Qc and R-SNAREs (~3 µM each) added along with the EDTA quench, 30 min at 30°C
[3] = molecular target: T1, GST-Sed5 full cytoplasmic domain (aa1-319) (S. cerevisiae, UniProt Q01590 1-319); assay: pull-down; SNARE complex assembly: 125 pmol GST-tagged Qa-SNARE on glutathione sepharose 4B; >=fivefold molar excess of Qb-, Qc- and R-SNAREs overnight at 4°C; SM Assay Buffer (20 mM HEPES, 150 mM NaCl, 2 mM 2-mercaptoethanol, 0.05% Anapoe-X-100, pH 7.4); washed
T1 construct: Sed5, Golgi Qa-SNARE, S. cerevisiae, full cytoplasmic domain aa1-319 with N-peptide and Habc segments, no transmembrane domain; also called GST-Sed5FL; Sed5FL; not shown: GST, N-terminal, kept
T1 sequence (looked up): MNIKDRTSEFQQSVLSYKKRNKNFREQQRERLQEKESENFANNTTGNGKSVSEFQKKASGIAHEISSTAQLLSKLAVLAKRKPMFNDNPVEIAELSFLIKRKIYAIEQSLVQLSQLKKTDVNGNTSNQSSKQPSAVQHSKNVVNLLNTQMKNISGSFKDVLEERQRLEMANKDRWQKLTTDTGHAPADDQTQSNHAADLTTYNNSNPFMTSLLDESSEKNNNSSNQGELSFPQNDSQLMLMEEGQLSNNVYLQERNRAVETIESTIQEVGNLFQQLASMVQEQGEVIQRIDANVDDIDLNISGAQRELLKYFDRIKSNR

[4] = molecular target: B5; assay: pull-down; re-assembly with added SNAREs: as a9, but soluble Qb, Qc and R-SNAREs (~3 µM each) added along with the EDTA quench, 30 min at 30°C
[5] = molecular target: T2, Sly1 (full length, aa1-667) (S. cerevisiae, UniProt P22213 1-666); assay: pull-down; SNARE complexes (500 nM) on immobilised Qa-SNARE pre-incubated with Sec17 (20 µM) and Sly1 (10 µM) or Vps33 (2.5 µM) 60 min at 30°C in Disassembly Buffer (SM Assay Buffer, 1 mM ATP, 2 mM MgCl2), then Sec18 (300 nM); what stayed on the resin after complete disassembly, SDS-PAGE
T2 construct: Sly1, Golgi SM protein, S. cerevisiae, printed as full-length aa1-667; construct His6-(tev)-Sly1; as I recall the UniProt entry has 666 residues; the printed 667 may count the stop codon; also called His6-Sly1; Golgi SM protein; source: E. coli (pRIL plasmid), purified (Ni-NTA)
T2 sequence (looked up): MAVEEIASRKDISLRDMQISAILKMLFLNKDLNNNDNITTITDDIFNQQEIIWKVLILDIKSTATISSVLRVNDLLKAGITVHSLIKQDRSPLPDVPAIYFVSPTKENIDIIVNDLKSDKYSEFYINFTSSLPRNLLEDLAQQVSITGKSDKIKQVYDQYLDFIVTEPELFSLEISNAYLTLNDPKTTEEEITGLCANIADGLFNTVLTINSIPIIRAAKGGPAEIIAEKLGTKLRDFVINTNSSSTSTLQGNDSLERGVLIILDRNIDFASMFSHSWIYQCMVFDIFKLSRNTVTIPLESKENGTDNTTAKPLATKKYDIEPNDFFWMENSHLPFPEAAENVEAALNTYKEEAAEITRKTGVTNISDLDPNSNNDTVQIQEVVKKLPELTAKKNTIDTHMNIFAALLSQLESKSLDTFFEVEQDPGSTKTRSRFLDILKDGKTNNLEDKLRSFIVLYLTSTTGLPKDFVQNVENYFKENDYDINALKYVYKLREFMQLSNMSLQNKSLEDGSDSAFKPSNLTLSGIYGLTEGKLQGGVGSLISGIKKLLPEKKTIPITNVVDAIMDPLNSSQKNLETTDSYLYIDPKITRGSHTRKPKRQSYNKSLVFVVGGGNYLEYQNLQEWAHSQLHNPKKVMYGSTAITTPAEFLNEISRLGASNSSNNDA

[6] = molecular target: B8; assay: pull-down; re-assembly with added SNAREs: as a9, but soluble Qb, Qc and R-SNAREs (~3 µM each) added along with the EDTA quench, 30 min at 30°C
Vps33 = molecular target: T3, Vps33 (S. cerevisiae, UniProt P20795 1-691); assay: pull-down; SNARE complexes (500 nM) on immobilised Qa-SNARE pre-incubated with Sec17 (20 µM) and Sly1 (10 µM) or Vps33 (2.5 µM) 60 min at 30°C in Disassembly Buffer (SM Assay Buffer, 1 mM ATP, 2 mM MgCl2), then Sec18 (300 nM); what stayed on the resin after complete disassembly, SDS-PAGE
T3 construct: Vps33, SM protein of the vacuole, S. cerevisiae; also called vacuole SM protein; late endolysosomal SM; source: insect cells, Baculovirus system, purified
T3 sequence (looked up): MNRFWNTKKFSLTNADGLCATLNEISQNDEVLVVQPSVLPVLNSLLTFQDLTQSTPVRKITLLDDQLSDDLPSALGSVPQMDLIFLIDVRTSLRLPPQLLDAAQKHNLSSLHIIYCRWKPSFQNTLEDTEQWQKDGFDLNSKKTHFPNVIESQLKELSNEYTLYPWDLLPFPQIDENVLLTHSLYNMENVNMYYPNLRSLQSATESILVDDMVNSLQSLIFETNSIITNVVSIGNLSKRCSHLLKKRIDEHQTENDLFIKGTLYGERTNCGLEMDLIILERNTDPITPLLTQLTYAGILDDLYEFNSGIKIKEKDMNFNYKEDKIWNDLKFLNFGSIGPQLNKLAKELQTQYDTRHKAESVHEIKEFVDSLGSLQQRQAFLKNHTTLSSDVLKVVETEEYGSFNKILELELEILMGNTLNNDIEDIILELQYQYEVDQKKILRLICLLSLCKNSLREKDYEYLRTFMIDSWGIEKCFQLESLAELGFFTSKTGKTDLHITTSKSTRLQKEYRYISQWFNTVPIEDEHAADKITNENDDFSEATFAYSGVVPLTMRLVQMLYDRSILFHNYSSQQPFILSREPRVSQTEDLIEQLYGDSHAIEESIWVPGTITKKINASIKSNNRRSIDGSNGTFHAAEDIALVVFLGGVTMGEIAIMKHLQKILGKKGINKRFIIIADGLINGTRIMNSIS

B1: His7-MBP-Vti1 (soluble domain, aa1-194) (domain or fragment, S. cerevisiae, UniProt Q04338 1-194, looked up)
chain: MSSLLISYESDFKTTLEQAKASLAEAPSQPLSQRNTTLKHVEQQQDELFDLLDQMDVEVNNSIGDASERATYKAKLREWKKTIQSDIKRPLQSLVDSGDRDRLFGDLNASNIDDDQRQQLLSNHAILQKSGDRLKDASRIANETEGIGSQIMMDLRSQRETLENARQTLFQADSYVDKSIKTLKTMTRRLVANK
notes: Vti1, vacuole Qb-SNARE, S. cerevisiae, soluble domain aa1-194; also called vacuole Qb-SNARE; source: E. coli (pRIL plasmid), purified (Ni-NTA); not shown: His7, N-terminal, kept; MBP, N-terminal, kept
B1: binds [1].

B2: His6-GFP-Vam7 SNARE domain (aa190-316) (domain or fragment, S. cerevisiae, UniProt P32912 190-316, looked up)
chain: PSTEVTRRAALLRSLLKECDDIGTANIAQDRGRLLGVATSDNSSTTEVQGRTNNDLQQGQMQMVRDQEQELVALHRIIQAQRGLALEMNEELQTQNELLTALEDDVDNTGRRLQIANKKARHFNNSA
notes: Vam7, vacuole Qc-SNARE, S. cerevisiae, SNARE domain aa190-316; also called vacuole Qc-SNARE; source: E. coli (pRIL plasmid), purified (Ni-NTA); not shown: His6, N-terminal, kept; GFP (A207K), N-terminal, kept
B2: binds [2].

B3: His6-Nyv1 (soluble domain, aa1-231) (domain or fragment, S. cerevisiae, UniProt Q12255 1-231, looked up)
chain: MKRFNVSYVEVIKNGETISSCFQPFQKNENYGTITSANEQITPVIFHNLIMDMVLPKVVPIKGNKVTKMSMNLIDGFDCFYSTDDHDPKTVYVCFTLVDMPKILPIRILSGLQEYESNATNELLSSHVGQILDSFHEELVEYRNQTLNSSGNGQSSNGNGQNTISDIGDATEDQIKDVIQIMNDNIDKFLERQERVSLLVDKTSQLNSSSNKFRRKAVNIKEIMWWQKVKN
notes: Nyv1, vacuole R-SNARE, S. cerevisiae, soluble domain aa1-231; also called vacuole R-SNARE; source: E. coli (pRIL plasmid), purified (Ni-NTA); not shown: His6, N-terminal, kept
B3: binds [2].

B4: His7-MBP-Bet1 (soluble domain, aa1-123) (domain or fragment, S. cerevisiae, UniProt P22804 1-123, looked up)
chain: MSSRFAGGNAYQRDTGRTQLFGPADGSNSLDDNVSSALGSTDKLDYSQSTLASLESQSEEQMGAMGQRIKALKSLSLKMGDEIRGSNQTIDQLGDTFHNTSVKLKRTFGNMMEMARRSGISIK
notes: Bet1, Golgi Qc-SNARE, S. cerevisiae, soluble domain aa1-123; also called Golgi Qc-SNARE; source: E. coli (pRIL plasmid), purified (Ni-NTA); not shown: His7, N-terminal, kept; MBP, N-terminal, kept
B4: binds [3]; binds [4].

B5: binds [5]; binds [6].

B6: binds (Vps33).

B7: His6-Bos1 (soluble domain, aa1-222) (domain or fragment, S. cerevisiae, UniProt P25385 1-222, looked up)
chain: MNALYNHAVKQKNQLQQELARFEKNSVTAPISLQGSISATLVSLEKTVKQYAEHLNRYKEDTNAEEIDPKFANRLATLTQDLHDFTAKFKDLKQSYNENNSRTQLFGSGASHVMDSDNPFSTSETIMNKRNVGGASANGKEGSSNGGGLPLYQGLQKEQSVFERGNAQLDYILEMGQQSFENIVEQNKILSKVQDRMSNGLRTLGVSEQTITSINKRVFKDK
notes: Bos1, Golgi Qb-SNARE, S. cerevisiae, soluble domain aa1-222; also called Golgi Qb-SNARE; source: E. coli Rosetta2 pLys, purified (Ni-NTA); not shown: His6, N-terminal, kept
B7: binds [3].

B8: binds [3].
